Results published in PMC3616737.

What was measured:
[1] = target: T1, XMRV reverse transcriptase (full-length, monomeric) (Xenotropic murine leukaemia …, UniProt A1Z651 658-1328); test: SAXS
[2] = target: T1, XMRV reverse transcriptase …; test: X-ray crystallography
[3] = target: T1, XMRV reverse transcriptase …; test: SAXS; remark: listed apart in the source

B1: PPT-19 (DNA:RNA)
RNA: UAGUCUCCAGAAAAAGGGGGGAAUG
DNA: ATTCCCCCCTTTTTCTGGAGAC
B1: binds [1].

B2: hybrid 1 (DNA:RNA)
RNA: AACAGAGUGCGACACCUGAUUCCAU
DNA: TGGAATCAGGTGTCGCACTCTG
B2: binds [2].

B3: PPT-18 (DNA:RNA)
RNA: AGUCUCCAGAAAAAGGGGGGAAUGA
DNA: CATTCCCCCCTTTTTCTGGAGA
B3: binds [3].
